B1: Complement factor H (Homo sapiens), P08603 (parent)
chain: MRLLAKIICLMLWAICVAEDCNELPPRRNTEILTGSWSDQTYPEGTQAIYKCRPGYRSLGNVIMVCRKGEWVALNPLRKCQKRPCGHPGDTPFGTFTLTGGNVFEYGVKAVYTCNEGYQLLGEINYRECDTDGWTNDIPICEVVKCLPVTAPENGKIVSSAMEPDREYHFGQAVRFVCNSGYKIEGDEEMHCSDDGFWSKEKPKCVEISCKSPDVINGSPISQKIIYKENERFQYKCNMGYEYSERGDAVCTESGWRPLPSCEEKSCDNPYIPNGDYSPLRIKHRTGDEITYQCRNGFYPATRGNTAKCTSTGWIPAPRCTLKPCDYPDIKHGGLYHENMRRPYFPVAVGKYYSYYCDEHFETPSGSYWDHIHCTQDGWSPAVPCLRKCYFPYLENGYNQNYGRKFVQGKSIDVACHPGYALPKAQTTVTCMENGWSPTPRCIRVKTCSKSSIDIENGFISESQYTYALKEKAKYQCKLGYVTADGETSGSITCGKDGWSAQPTCIKSCDIPVFMNARTKNDFTWFKLNDTLDYECHDGYESNTGSTTGSIVCGYNGWSDLPICYERECELPKIDVHLVPDRKKDQYKVGEVLKFSCKPGFTIVGPNSVQCYHFGLSPDLPICKEQVQSCGPPPELLNGNVKEKTKEEYGHSEVVEYYCNPRFLMKGPNKIQCVDGEWTTLPVCIVEESTCGDIPELEHGWAQLSSPPYYYGDSVEFNCSESFTMIGHRSITCIHGVWTQLPQCVAIDKLKKCKSSNLIILEEHLKNKKEFDHNSNIRYRCRGKEGWIHTVCINGRWDPEVNCSMAQIQLCPPPPQIPNSHNMTTTLNYRDGEKVSVLCQENYLIQEGEEITCKDGRWQSIPLCVEKIPCSQPPQIEHGTINSSRSSQESYAHGTKLSYTCEGGFRISEENETTCYMGKWSSPPQCEGLPCKSPPEISHGVVAHMSDSYQYGEEVTYKCFEGFGIDGPAIAKCLGEKWSHPPSCIKTDCLSLPSFENAIPMGEKKDVYKAGEQVTYTCATYYKMDGASNVTCINSRWTGRPTCRDTSCVNPPTVQNAYIVSRQMSKYPSGERVRYQCRSPYEMFGDEEVMCLNGNWTEPPQCKDSTGKCGPPPPIDNGDITSFPLSVYAPASSVEYQCQNLYQLEGNKRITCRNGQWSEPPKCLHPCVISREIMENYNIALRWTAKQKLYSRTGESVEFVCKRGYRLSSRSHTLRTTCWDGKLEYPTCAKR
partner: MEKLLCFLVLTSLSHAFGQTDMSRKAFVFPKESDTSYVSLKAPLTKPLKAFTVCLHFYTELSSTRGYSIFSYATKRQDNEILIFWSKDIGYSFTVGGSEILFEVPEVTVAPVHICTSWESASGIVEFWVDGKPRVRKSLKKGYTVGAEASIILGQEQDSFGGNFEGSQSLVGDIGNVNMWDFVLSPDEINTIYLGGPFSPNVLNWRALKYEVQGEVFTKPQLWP

Variants of: B1
Details: with crp_human CRP

| Variant | effect of a mutation on the interaction |
| --- | --- |
| Y402H | with no effect |

Variants of: B1
Details: with crp_human CRP
Remark: another data set of the same source

| Variant | effect of a mutation on the interaction |
| --- | --- |
| Y402H | decreasing interaction strength |
